T1: EphB2 extracellular domain (Homo sapiens, UniProt P29323)
T1 construct: purified recombinant protein fragment with EphB2 extracellular domain (EphB2 (200 ng), active; Millipore); purchased Millipore
T1 sequence (P29323 19-543 limits assumed): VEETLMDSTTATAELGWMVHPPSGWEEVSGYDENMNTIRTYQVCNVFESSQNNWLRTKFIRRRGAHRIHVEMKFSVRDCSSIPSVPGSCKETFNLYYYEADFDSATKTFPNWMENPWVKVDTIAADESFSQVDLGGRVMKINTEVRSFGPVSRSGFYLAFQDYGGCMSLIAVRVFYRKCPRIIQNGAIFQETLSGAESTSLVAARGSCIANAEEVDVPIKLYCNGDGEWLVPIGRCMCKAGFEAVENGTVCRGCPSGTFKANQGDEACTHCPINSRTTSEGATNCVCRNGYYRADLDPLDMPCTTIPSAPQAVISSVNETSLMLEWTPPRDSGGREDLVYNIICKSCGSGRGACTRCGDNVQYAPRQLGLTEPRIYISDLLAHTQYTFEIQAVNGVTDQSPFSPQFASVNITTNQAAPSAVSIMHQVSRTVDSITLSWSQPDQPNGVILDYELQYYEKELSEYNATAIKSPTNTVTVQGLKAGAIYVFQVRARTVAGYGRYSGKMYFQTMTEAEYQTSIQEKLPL

T2: EphB2-NMDAR interaction (Homo sapiens, UniProt P29323)
T2 sequence (P29323 19-1055): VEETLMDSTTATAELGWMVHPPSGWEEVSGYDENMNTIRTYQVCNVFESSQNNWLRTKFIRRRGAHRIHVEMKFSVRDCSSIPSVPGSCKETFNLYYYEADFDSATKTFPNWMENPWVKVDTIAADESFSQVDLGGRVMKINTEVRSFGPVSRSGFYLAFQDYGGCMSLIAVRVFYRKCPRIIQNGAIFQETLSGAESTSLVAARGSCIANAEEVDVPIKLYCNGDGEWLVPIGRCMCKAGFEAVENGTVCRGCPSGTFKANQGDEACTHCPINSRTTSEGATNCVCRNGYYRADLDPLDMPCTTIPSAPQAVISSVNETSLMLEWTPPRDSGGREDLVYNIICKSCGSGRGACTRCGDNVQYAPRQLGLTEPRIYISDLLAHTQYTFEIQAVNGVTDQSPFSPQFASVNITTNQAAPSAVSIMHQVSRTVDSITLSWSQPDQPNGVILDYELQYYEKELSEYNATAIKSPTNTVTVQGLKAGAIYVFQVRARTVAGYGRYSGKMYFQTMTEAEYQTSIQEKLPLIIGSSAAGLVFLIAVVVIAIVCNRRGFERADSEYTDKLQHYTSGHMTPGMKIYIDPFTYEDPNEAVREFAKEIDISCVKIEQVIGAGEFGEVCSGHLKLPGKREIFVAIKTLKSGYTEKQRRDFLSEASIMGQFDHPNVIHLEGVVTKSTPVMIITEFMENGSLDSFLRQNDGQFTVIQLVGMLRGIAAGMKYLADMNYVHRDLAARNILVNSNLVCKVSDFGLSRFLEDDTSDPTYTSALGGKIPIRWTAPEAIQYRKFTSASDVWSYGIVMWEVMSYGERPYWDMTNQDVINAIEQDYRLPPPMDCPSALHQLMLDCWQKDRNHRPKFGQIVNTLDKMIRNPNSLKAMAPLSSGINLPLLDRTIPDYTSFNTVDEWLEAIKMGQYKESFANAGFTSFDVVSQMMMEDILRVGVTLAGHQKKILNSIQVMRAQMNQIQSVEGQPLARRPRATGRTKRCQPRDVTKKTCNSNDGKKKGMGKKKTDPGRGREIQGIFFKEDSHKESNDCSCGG

B1: VLK: active recombinant Vertebrate Lonesome Kinase (VLK/PKDCC), GST-tagged, purified from BL21 cells (protein)
chain: PRPGQSPEPSPAPGPGRRGGRGELARQIRARYEEVQRYSRGGPGPGAGRPERRRLMDLAPGGPGLPRPRPPWARPLSDGAPGWPPAPGPGSPGPGPRLGCAALRNVSGAQYMGSGYTKAVYRVRLPGGAAVALKAVDFSGHDLGSCVREFGVRRGCYRLAAHKLLKEMVLLERLRHPNVLQLYGYCYQDSEDIPDTLTTITELGAPVEMIQLLQTSWEDRFRICLSLGRLLHHLAHSPLGSVTLLDFRPRQFVLVDGELKVTDLDDARVEETPCAGSTDCILEFPARNFTLPCSAQGWCEGMNEKRNLYNAYRFFFTYLLPHSAPPSLRPLLDSIVNATGELAWGVDETLAQLEKVLHLYRSGQYLQNSTASSSTEYQCIPDSTIPQEDYRCWPSYHHGSCLLSVFNLAEAVDVCESHAQCRAFVVTNQTTWTGRQLVFFKTGWSQVVPDPNKTTYVKASG

How the values were obtained:
mice [1] = assay: Intrathecal administration, von Frey mechanical withdrawal thresholds; format: in vivo, mouse
Protocol: Behavior. Mechanical Withdrawal Thresholds were determined using von Frey Filament testing, following the method of (48). Animals were habituated to plexiglass chambers (11.4×7.6×7.6 cm) suspended on wire mesh racks. Baseline withdrawal thresholds were measured before experimental treatments, and subsequent testing was done at various timepoints indicated in each figure. Mechanical sensitivity was determined by applying von Frey filaments to the plantar aspect of the hind paws, and a response was indicated by flicking or withdrawal of the paw. For mice subjected to hindpaw incision surgeries, filaments were instead applied to the heel of the hindpaw near the site of injury but avoiding scar tissue.
(§1) Intrathecal injections were performed as previously described under isoflurane anesthesia (6). Drugs were administered in a 5 μL volume with a Hamilton syringe. Drugs were diluted in sterile saline. Heat denaturation was done by heating proteins at 70° C. for 30 mins. VLK, KD-VLK, DIA1, FAM69c and denatured controls were administered at concentrations of 0.1 mg/mL PAP was administered at 250 mU (12). APV was administered at 0.2 mg/mL.

neuronal cFos expression = assay: cFos/NeuN staining of lumbar spinal cord dorsal horn after intrathecal administration; format: in vivo, mouse
Protocol: cFos and NeuN staining of free-floating tissue sections. Adult mice were euthanized by isoflurane inhalation. Lumbar spinal cords were dissected and drop fixed in 10% formalin for 2 hours, cryoprotected, embedded in OCT (Fisher #1437365) and frozen on dry ice. Tissues were cryostat sectioned at […]. Tissues were blocked in 0.1M Phosphate buffer with 10% Normal Goat Serum and 0.3% Triton-X and incubated in cFos and NeuN primary antibodies for 48 hours at 4° C. Secondary antibodies were incubated for 2 hours at room temperature. Sections were slide mounted and cover slipped with Prolong Gold Antifade. Images were taken on an Olympus Fluoview FV1000 confocal microscope at 20× magnification. cFos^+ cell counts were carried out using Imaris software.
as §1

mice [2] = assay: Intrathecal administration, Mouse Grimace Scale scoring; format: in vivo
Protocol: Mouse grimace scoring was conducted using the Mouse Grimace Scale (MGS) described by (49). After acclimating to the suspended plexiglass chambers for an hour, mice were scored according to the MGS by blinded experimenters at baseline and post treatment time points which are indicated in each figure. The grimace scores were averaged by group at each time point and plotted respectively.
as §1

[3] = target: T1, EphB2 extracellular domain; assay: In vitro cell-free kinase assay; format: biochemical; details: 100 ng kinase, 200 ng EphB2 ectodomain, ATP, 37° C., 30 min
Protocol: In vitro Kinase assay. For the in vitro kinase assay purified recombinant protein fragment with EphB2 extracellular domain (EphB2 (200 ng), active; Millipore) and active VLK (100 ng), VLK-KD (100 ng), Fam69C (100 ng), DIA1 (100 ng) was used. The kinase reaction was started by adding 10 mM MnCl2, 10 mM MgAc, and 100 μM ATP in ACSF buffer. After 30 min of incubation at 37° C., phosphorylated proteins were separated by SDS-PAGE and analyzed by western blotting with anti-phosphotyrosine antibody (PY99) and EphB2. This protocol was also previously described (6)

EphB2-NMDAR interaction = target: T2, EphB2-NMDAR interaction; assay: Proximity ligation assay (PLA) of EphB2-NMDAR in transfected HEK293T cells; format: cell-based; details: non-permeabilized HEK293T cells, 100 ng recombinant protein, 45 minutes
Protocol: Recombinant protein—HEK293T cells were treated with 100 ng recombinant VLK, Fam69C, or DIA1. Synaptosomes were treated with 100 ng recombinant VLK. 1 mM ATP (Cat #A9187; Sigma) was applied as indicated. Recombinant PAP treatment was applied at 100 ng.
Proximity Ligation Assay (PLA). As previously described, PLA experiments on HEK293T cells, mouse brain, and human spinal cord synaptosomes were performed (4). Synaptosome PLA combined with vGlut1 immunostaining was also previously described (4).

[4] = test system: endogenous EphB2-NMDAR interaction; assay: EphB2/GluN1 co-immunoprecipitation in untransfected cultured cortical neurons; format: cell-based; details: untransfected rat cortical neurons, 45 min
Protocol: Primary neuronal culture and transfection. Primary neuronal cultures were derived from embryonic day 17-18 (E17-18) rat cerebral cortex and maintained as described previously (4, 6). 8×10^6 neurons were plated for 10 cm dishes and 1×10^6 neurons were plated per well of 6 well dishes for biochemical assays. 2×10^5 neurons were plated on glass bottom dishes for live cell imaging experiments. As previously described, neuronal cultures were transfected using Lipofectamine 2000 (4, 6).
Western Blotting, Immunoprecipitation (IP) and Co-IP. HEK293T cells and cultured neurons were lysed in RIPA buffer to generate protein lysates. Cortices of postnatal day 35 (P35) transgenic mice Pkdcc^flox/flox CaMKII^Cre/+ and its WT littermate controls were also lysed using RIPA buffer and an equal amount of protein was used to perform IP. Pooled dorsal horns from Pkdcc^flox/flox Pirt^Cre/+ uninjured mice and their WTlittermate controls were lysed in RIPA. Following lysis, an additional Percoll gradient spin was carried out to remove myelin and unwanted cellular debris (37) and an equal amount of protein was used to perform IP. For conditioned ACSF IP, ACSF was filtered through a […] syringe filter (Millipore, cat #SLGV004SL) and incubated with antibody for 2 h at 4° C. followed by addition of Protein-G beads and incubation overnight at 4° C. […]

[5] = agent given intrathecally before or together with VLK
[6] = intrathecal, 0.1 mg/mL in 5 μL, kinase given alone

| Molecule | VLK-induced mechanical sensitivity (mice [1]; [5]) | VLK-induced neuronal cFos expression (neuronal cFos expression; VLK+AP5 intrathecal) | VLK-induced grimacing (mice [2]; [5]) | tyrosine phosphorylation of EphB2 ectodomain [3] | mechanical thresholds (von Frey) (mice [1]; [6]) | neuronal cFos expression (cFos+ cells) (neuronal cFos expression; intrathecal VLK alone) | grimacing (grimace scores, affective pain) (mice [2]; [6]) | EphB2-NMDAR interaction on the cell surface (PLA) (EphB2-NMDAR interaction; listed as rVLK) | EphB2-NMDAR interaction on the cell surface (PLA) (EphB2-NMDAR interaction; listed as recombinant VLK) | endogenous EphB2-NMDAR interaction (co-IP GluN1 with EphB2) [4] |
| --- | --- | --- | --- | --- | --- | --- | --- | --- | --- | --- |
| NC(CCCP(=O)(O)O)C(=O)O (stereo not shown) [AP5, reference compound] | blocked the VLK-induced pain phenotype | blocked | blocked the VLK-induced pain phenotype |  |  |  |  |  |  |  |
| B1 |  |  |  | unique capacity to phosphorylate the EphB2 ectodomain | sharp drop in mechanical thresholds | significant increase in neuronal cFos expression | increased grimacing | induces the EphB2-NMDAR interaction on the cell surface | induced the EphB2-NMDAR interaction on the cell surface | induces the endogenous EphB2-NMDAR interaction |

From patent US20250289906A1, “MODULATION OF EXTRACELLULAR KINASE ACTIVITY AND FUNCTION FOR TREATMENT OF PAIN AND NEURODEGENERATIVE/NEUROIMMUNE DISEASE” (BOARD OF REGENTS, THE UNIVERSITY OF TEXAS SYSTEM, priority 2024, published 2025)
